Some results are limits rather than exact numbers.

Here are results for 1 substance from US9273304B2, “Inactivation method” (Thermo Fisher Scientific Baltics UAB, priority 2006, dated 2016).

What all share (assay type): biochemical
In series [1] the target is T1, Taq DNA polymerase (Thermus aquaticus, UniProt P19821). Briefly: Activity in PCR measured by incorporation of [3H]-dTTP into the PCR product (pH and Mg2+ effect). On the procedure: Activity of Taq DNA polymerase modified with N-ethoxycarbonyl-N-2,3-dimethylmaleinimide at different pH during was measured by incorporation [^3H]-dTTP nucleotide into the PCR product.
T1 sequence (P19821 whole entry): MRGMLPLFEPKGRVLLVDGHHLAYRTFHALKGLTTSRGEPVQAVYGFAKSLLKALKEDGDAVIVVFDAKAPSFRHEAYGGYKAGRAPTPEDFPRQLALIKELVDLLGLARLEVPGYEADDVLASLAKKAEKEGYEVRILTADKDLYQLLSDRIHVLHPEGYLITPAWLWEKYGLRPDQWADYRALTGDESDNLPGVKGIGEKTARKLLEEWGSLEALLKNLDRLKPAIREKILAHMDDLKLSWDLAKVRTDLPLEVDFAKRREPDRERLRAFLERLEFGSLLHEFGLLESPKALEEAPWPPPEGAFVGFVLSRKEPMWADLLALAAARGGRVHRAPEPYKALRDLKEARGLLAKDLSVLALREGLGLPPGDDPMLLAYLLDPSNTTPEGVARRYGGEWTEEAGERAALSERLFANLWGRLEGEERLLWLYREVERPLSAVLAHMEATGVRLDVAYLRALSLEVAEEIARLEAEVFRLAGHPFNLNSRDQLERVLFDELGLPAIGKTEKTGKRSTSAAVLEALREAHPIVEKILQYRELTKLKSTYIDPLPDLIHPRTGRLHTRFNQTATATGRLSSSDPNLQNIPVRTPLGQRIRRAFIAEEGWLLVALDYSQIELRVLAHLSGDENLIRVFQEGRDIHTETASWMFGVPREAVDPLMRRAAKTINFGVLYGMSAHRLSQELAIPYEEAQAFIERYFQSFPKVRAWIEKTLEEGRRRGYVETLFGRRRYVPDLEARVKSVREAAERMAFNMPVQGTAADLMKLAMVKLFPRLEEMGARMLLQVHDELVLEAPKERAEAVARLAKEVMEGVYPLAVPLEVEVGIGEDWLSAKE
Sets of PCR were carried out at the following pH values determined at 25° C.: 8.2, 8.3, 8.4, 8.5, 8.6, 8.7, and 8.8. The reactions were preformed in the GeneAmp® PCR System 9700 (Applied Biosystems) using 1.25 units of the modified enzymes in aliquots ([…] of the reaction buffer of the following composition: 20 mM Tris-HCl (pH values indicated above), 20 mM KCl, 5 mM (NH4)SO4, 1.5 mM MgCl2 supplemented with 0.2 mM dNTP, 0.8 MBq/ml [^3H]-dTTP, 0.5 […] of both PCR primers ([SEQ ID NO: 1] 5′-[…]-3′ and [SEQ ID NO: 2] 5′-[…]-3′), and human DNA (10 ng/50 μl).
Thermal cycling profile was the following: 95° C.—4 min; (95° C.—0.5 min, 50° C.—0.5 min, 72° C.—1 min)—30 cycles; 72° C.—7 min.
Activity of the modified DNA polymerase in PCR was determined as described in the Example 8. A set of PCR reactions was carried out in the reaction buffer (see Example 7) supplemented with the following Mg^2+ concentrations: 1 mM, 1.5 mM, 2 mM, 2.5 mM, 3 mM, 3.5 mM, 4 mM, 5 mM, 6 mM, 7 mM, and 8 mM.

In series [2] the target is T1, Taq DNA polymerase. Briefly: 5′-3′ exonuclease activity: cleavage of 5′-labelled oligonucleotide duplexes at 37° C. Particulars: 4 hours, with or without dNTPs, FIG. 9, part B. The method, then:
The exonuclease activity was determined using the following labeled complementary oligonucleotides: [SEQ ID NO: 3] 5′-[…]-3′ and [SEQ ID NO: 4] 5′-[…]-3′. Equal amounts (10 units) of the unmodified enzyme and the modified enzyme were incubated with the oligonucleotide duplexes for 4 hours at 37° C. in 10 μl of reaction buffer. Activity of the unmodified Taq DNA polymerase was tested in the following buffer: 75 mM Tris-HCl (pH 8.8 at 25° C.), 20 mM (NH4)SO4, 0.01% Tween20, and 2 mM MgCl2, while the buffer composition to test the modified Taq DNA polymerase was the following: 20 mM Tris-HCl (pH 8.3 at 25° C.), 20 mM KCl, 5 mM (NH4)SO4, and 2 mM MgCl2. Both reaction mixtures were tested either in the presence or in the absence of dNTPs.
Reactions were terminated by addition of 5 μl of a “stop” solution (95% (v/v) formamide and 0.01% bromophenol blue). After heating at 95° C. for 2 minutes, the samples were cooled in ice, and then they were loaded onto 15% denaturing acrylamide gel (29:1 acrylamide/bisacrylamide). Electrophoresis was performed in 89 mM Tris-borate (pH8.3 at 37° C.) supplemented with 2 mM EDTA for one hour at ˜50 V/cm. After electrophoresis, the gels were fixed in 10% acetic acid and dried. The gels were analyzed using Cyclone Storage Phosphor System and OptiQuant™ Image Analysis Software.

In series [3] the test system is CFTR gene or insulin gene, human genome DNA as template. Briefly: PCR specificity and efficiency, mixtures set up at room temperature (CFTR and insulin gene fragments). The method, then:
Sets of PCR reactions were carried out in the Mastercycle (Eppendorf). The reactions performed using 2 units of both the unmodified and the modified enzymes. Composition of the buffer used in the experiments with the modified Taq DNA polymerase was described in the Example 7. The unmodified Taq DNA was tested in the buffer of the following compositions: 75 mM Tris-HCl (pH 8.8 at 25° C.), 20 mM (NH4)SO4, 0.01% Tween20. Both buffers were supplemented with 2 mM MgCl2, 0.2 mM dNTP, 0.5 μm of each PCR primer and human DNA (100 ng/50 μl). For amplification of 950 by DNA fragment of the CFTR gene, the same set of PCR primers was used as described in the Example 8. A 400 bp fragment of the insulin gene was amplified with the following set of PCR primers: […]
The components of PCR were mixed at room temperature and the reactions were performed using the following cycling profiles: • 1. For the 950 bp amplicon: 95° C.—5 min; (95° C.—[…], 50° C.—0.5 min, 72° C.—1 min)—40 cycles; 72° C.—7 min. • 2. For the 400 bp amplicon: 95° C.—5 min; (95° C.—0.5 min, 65° C.—0.5 min, 72° C.—1 min)—40 cycles; 72° C.—7 min.
After completion of PCR, the samples were mixed with aliquots (10 μl) of the 6× MassRuller™ Loading Dye (Fermentas), and the samples were analyzed by gel electrophoresis in 1.7% agarose. The Gene Ruler™ 100 bp DNA Ladder Plus (Fermentas) was used for evaluation of the amplicon size. Electrophoresis was performed in the TBE buffer (89 mM Tris, 89 mM H3BO3, and 1 mM EDTA) at 5 V/cm for 75 min. After completion of electrophoresis, gels were stained with ethidium bromide (0.5 μg/ml). Then, gels were destained in MiliQ-quality water for 20 minutes. DNA bands were visualized under UV.

Consider “Taq DNA polymerase modified with N-etoxycarbonyl-2,3-dimethylmaleinimide: Recombinant Taq DNA polymerase reversibly inactivated by reaction with N-ethoxycarbonyl-2,3-dimethylmaleinimide in aqueous solution (preferred molar ratio 1/110)”, for which the “activity within the 1.5-5.0 mM range of Mg2+ concentrations” value with Taq DNA polymerase [1] (1.5-5.0 mM Mg2+) is at least 70%. The “Activity at 70° C. (%)” value is recorded as around 0% in the series with Taq DNA polymerase [1] ([Mg2+] 1 mM, incorporation of [3H]-dTTP into the PCR product); around 70% with Taq DNA polymerase [1] ([Mg2+] 1.5 mM); around 70% with Taq DNA polymerase [1] ([Mg2+] 2.0 mM); around 100% in the series with Taq DNA polymerase [1] ([Mg2+] 2.5 mM); around 100% in the series with Taq DNA polymerase [1] ([Mg2+] 3.0 mM); around 100% with Taq DNA polymerase [1] ([Mg2+] 3.5 mM). Further, the “Activity at 70° C. (%)” value with Taq DNA polymerase [1] ([Mg2+] 4.0 mM) is recorded as around 90%; with Taq DNA polymerase [1] ([Mg2+] 5.0 mM), around 70%; with Taq DNA polymerase [1] ([Mg2+] 6.0 mM), around 30%; with Taq DNA polymerase [1] ([Mg2+] 7.0 mM) it was around 20%; in the series with Taq DNA polymerase [1] ([Mg2+] 8.0 mM) it was around 10%; with Taq DNA polymerase [1] (ambient pH 8.2, incorporation of [3H]-dTTP into the PCR product), around 30%. In addition, the “Activity at 70° C. (%)” value with Taq DNA polymerase [1] (ambient pH 8.3) is around 80%; with Taq DNA polymerase [1] (ambient pH 8.4), around 100%; with Taq DNA polymerase [1] (ambient pH 8.5), around 100%; with Taq DNA polymerase [1] (ambient pH 8.6), around 100%; in the series with Taq DNA polymerase [1] (ambient pH 8.7), around 100%; in the series with Taq DNA polymerase [1] (ambient pH 8.8) it was around 60%. The “activity within the pH 8.3-8.7 range” value with Taq DNA polymerase [1] (pH 8.3-8.7) is given as at least 80%. For the same substance, the “5′-3′ exonuclease activity” value with Taq DNA polymerase [2] was “practically devoid of exonuclease activity”. In addition, the “yield of unspecific PCR byproducts versus unmodified DNA polymerase” value in series [3] (CFTR and insulin gene fragments, PCR set up at room temperature, FIG. 10) is on record as “lesser yield”. The “yield of the byproducts caused by the primer dimerization versus unmodified DNA polymerase” value in series [3] (insulin gene 400 bp fragment) is on record as “lower”. Also, the “yield of the insulin amplicon versus unmodified DNA polymerase” value in series [3] (insulin gene 400 bp fragment) is “higher yield”.
